Patent US10543284B2, “Anti-c-Met antibody and anti-c-Met antibody-cytotoxic drug conjugate and pharmaceutical use thereof” (Suzhou Suncadia Biopharmaceuticals Co., Ltd., priority 2015, dated 2020)

What was measured:
MKN45 cells = assay: Inhibition of proliferation of MKN45 gastric cancer cells (CellTiter-Glo, 5 days); format: cell-based, human
Source text: The clones above were selected and further cultured to obtain monoclones. After verification of binding activity by ELISA, monoclones were selected for cultivation, and the resulting supernatant was subjected to a cell viability assay. According to the experiment principle, anti-human c-Met antibodies of the invention are able to inhibit phosphorylation of c-Met expressed on the surface of human gastric cancer cell line MKN45, thereby inhibiting the proliferation of MNK45 cells.
Human gastric cancer cells (MKN45, JCRB, JCRB0254, P11) were added to a 96-well cell culture plate (costar, #3799) at 1×10^5 cells/mL and 50 μl/well. The medium was RPMI1640 medium: (GIBCO, cat #11835)+10% FBS (GIBCO-10099141). Anti-human c-Met antibodies to be tested were added at 50 μl/well, and the plate was cultured for 5 days in incubator at 37′C (Manufacture: SANYO; Equipment No. TINC035). CellTiter-Glo® Luminescent Cell Viability Assay (Promega, G7573) was used, and the proliferation of cells was detected according to the instructions. The plate was read by a PerkinElmer plate reader, TREA001-RDA-IBA100. The following formula was used to calculate the percentage proliferation of cells: % proliferation of cells=(1−cell reads in experimental group/cell reads in untreated group)×100%.

[1] = test system: MKN45 cells expressing c-Met; assay: Endocytosis of anti c-Met antibody in MKN45 cells (FACS); format: cell-based, human; conditions: 10 μg/ml
Procedure: Antibodies of the invention could bind to human c-Met, have very good in vitro activity, and inhibit tumor activity in vivo. […] In order to detect whether the antibody could be taken up into the cell along with human c-Met once bound to human c-Met, the human gastric cancer cell line MKN45 (JCRB, Cat No.: JCRB0254) expressing c-Met was used for evaluation. […] The plate was incubated at 4° C. for 1 hour. FACS buffer (phosphate buffer solution including 2.5% fetal bovine serum; Hyclone, Cat: SH30256.01B) was added, and the plate was centrifuged at 4° C., 1300 rpm for 4 minutes. The supernatant was discarded, and this procedure was repeated three times. 100 μl secondary antibody solution (Fluorescence labeled goat anti mouse secondary antibodies at 1:200 dilution, Biolegend, Cat No. 405307; Fluorescence labeled anti-human secondary antibody at 1:30 dilution, Biolegend, Cat No. 409304) was added into each well, and the plate was incubated at 4° C. for 1 hour. FACS buffer was added and the plate was centrifuged at 4° C., 1300 rpm for 4 minutes. The supernatant was discarded, and this procedure was repeated three times. […] FACS buffer was added and the plate was centrifuged at 4° C., 1300 rpm for 4 minutes. The supernatant was discarded, and this procedure was repeated three times. 200 μl Stripping buffer (0.05 M glycine, pH 3.0; 0.1 M NaCl, mixed in accordance with 1:1 (v/v)) was added to each well. The cells were resuspended and were incubated for 7 minutes at room temperature. The cells were centrifuged at room temperature at 1300 rpm for 4 minutes, and the supernatant was discarded. 200 μl neutralizing wash buffer (0.15M trihydroxymethyl aminomethane, pH 7.4) was added to each well, the cells were resuspended and centrifuged at room temperature at 1300 rpm for 4 minutes, and the supernatant was discarded. 200 μl FACS buffer was added, and the cells were resuspended. Samples were prepared and detected by flow cytometry (BD FACS Calibur). Endocytosis of c-Met antibody %=(intensity of fluorescence at various time points−average intensity of fluorescence at time 0)/average intensity of fluorescence at time 0.

Caki-1 cells = assay: Agonist test: stimulation of Caki-1 cell proliferation; format: cell-based, human; conditions: highest concentration 20 μg/ml, 5 days
Procedure: Caki-1 cells express the hepatocyte growth factor receptor c-Met, and HGF can bind c-Met to stimulate Caki-1 cell proliferation. Therefore, agonist activity of anti c-Met antibodies could be evaluated by the proliferation of Caki-1 cells stimulated by the humanized anti c-Met antibodies of the invention compared with the proliferation of Caki-1 cells stimulated by HGF.
Caki-1 cells (Shanghai Branch of Chinese Academy of Science, TCHu135, P12) were added to a 96-well culture plate (costar, #3799) at 1000/well. The medium was McCoy's 5A (invitrogen, #16600)+10% FBS (GIBCO-10099141), and the condition was at 37° C. for 24 hours. Afterwards, cells were starved for 24 hours (The medium for cell starvation is McCoy's 5A and 0.5% FBS).

[2] = LC-MS analysis of deamination (biophysical stability); format: physicochemical; conditions: Proportion of deamination molecules; 0.66-1.0% is within background
Procedure: To evaluate the biophysical stability of the antibodies of the invention, such as the presence of glycosylation and deamination and stability, LC-MS analysis was used.
The molecular weight of the heavy and light chains was detected by LC-MS to analyze glycosylation. Deamination was analyzed by LC-MS at 4° C. for a long time (at least 3 months), or at 40° C. for 21 days under an accelerated condition. Samples treated with different conditions were diluted to 2 mg/ml with pH7.2 Tris-HCl, and added into 10 mM TCEP and 6M urea (AMRESCO, Cat #0378)3, then the samples were incubated for 20 minutes at […]. IAA(Sigma-Aldrich, Cat # I1149) with a final concentration of 20 mM was added and was incubated for 15 minutes in darkness to protect the sulfhydryl group. The pH was adjusted using pH7.2 Tris-HCl, and protease (Sigma-Aldrich, Cat # T6567) was added at a proportion by weight of 10:1 (protein: enzyme). The samples were incubated at 37° C. for 25 minutes, and then formic acid with a final concentration of 0.1% (Fluca, Cat #94318) was added to terminate the reactions. Samples were centrifuged and analyzed by LC-MS.
BiopharmaLynx was used to analyze the presence of deamination. […] The peak area was obtained by integration, and the percentages of deamination and oxidation were calculated.

B1: Ab-9: humanized anti c-Met antibody: heavy chain sequence of SEQ ID NO: 23 and light chain sequence of SEQ ID NO: 26 (antibody)
heavy: QVTLKESGPVLVKPTETLTLTCTVSGFSLPNYGVHWVRQPPGKALEWLAVIWSGGSTNYAAAFVSRLRISKDTSKSQVVFTMNNMDPVDTATYYCARNHDNPYNYAMDYWGQGTTVTVSSASTKGPSVFPLAPCSRSTSESTAALGCLVKDYFPEPVTVSWNSGALTSGVHTFPAVLQSSGLYSLSSVVTVPSSNFGTQTYTCNVDHKPSNTKVDKTVERKCCVECPPCPAPPVAGPSVFLFPPKPKDTLMISRTPEVTCVVVDVSHEDPEVQFNWYVDGVEVHNAKTKPREEQFNSTFRVVSVLTVVHQDWLNGKEYKCKVSNKGLPAPIEKTISKTKGQPREPQVYTLPPSREEMTKNQVSLTCLVKGFYPSDIAVEWESNGQPENNYKTTPPMLDSDGSFFLYSKLTVDKSRWQQGNVFSCSVMHEALHNHYTQKSLSLSPGK
light: DIVLTQSPASLAVSPGQRATITCRANKSVSTSTYNYLHWYQQKPGQPPKLLIYLASNLASGVPARFSGSGSGTDFTLTINPVEANDTANYYCQHSRDLPPTFGQGTKLEIKRTVAAPSVFIFPPSDEQLKSGTASVVCLLNNFYPREAKVQWKVDNALQSGNSQESVTEQDSKDSTYSLSSTLTLSKADYEKHKVYACEVTHQGLSSPVTKSFNRGEC
modifications: Ab-9 heavy chain; Ab-9 light chain
MKN45 cells
  Activity of inhibition of MKN45 cell proliferation Maximum inhibition rate (%): 33%
[1]; 0 h
  endocytosis % 0 h: 0%
[1]; 0.5 h
  endocytosis % 0.5 h: 26%
[1]; 1 h
  endocytosis % 1 h: 32%
[1]; 2 h
  endocytosis % 2 h: 32%
[1]; 4 h
  endocytosis % 4 h: 31%
Caki-1 cells
  Stimulation of proliferation of Caki-1: none
[2]
  Analysis of deamination 4° C., 3.5 months: 0.66%
